Consider four sequences from patent US20110189164A1, “Peptide Stabilizer Compounds and Screening Method” (Isogenica Ltd, priority 2005, published 2011).

One data set deals with Human Thrombin (Homo sapiens, UniProt P00734). The note with it: fifth round selected peptides; 1 hour incubation +/- Human Thrombin 0.1 unit/ml; anti-FLAG ELISA OD450. Here is the method: The values represent ((OD450 nm reading after incubation with thrombin)/(OD450 nm reading after incubation without thrombin)) expressed as a percentage. 100% indicates complete protection from thrombin cleavage.
Recovered DNA from the fifth round of selection was amplified using PCR, purified and digested with NotI and NcoI. The DNA was then ligated into a similarly digested M13 gpIII phagemid vector and transformed into E. coli XL-1 blue cells, and plated on 2% glucose, 2×TY, 100 μg/ml ampicillin plates. Individual colonies were grown for the production of phage particles as previously described (Odegrip et al Proc. Natl. Acad. Sci USA 101 2806-2810 (2004)). NUNC Maxisorp plates were coated with 100 ng/well of anti-FLAG M2 antibody in PBS overnight at 4° C. ELISA assays were performed with bound phage being incubated for 1 hour in 2% BSA in PBS, +/−Human Thrombin (0.1 unit/ml). The assay was developed with SureBlue TMB peroxidase substrate (Insight Biotechnology, Middlesex, UK) and read at 450 nm.
(In general: ELISA stands for enzyme-linked immunosorbent assay.)

The target of another data set is T1, trypsin (Bos taurus, UniProt P00760).
T1 construct: purchased SIGMA-Aldrich or Novagen
T1 sequence (P00760 24-246): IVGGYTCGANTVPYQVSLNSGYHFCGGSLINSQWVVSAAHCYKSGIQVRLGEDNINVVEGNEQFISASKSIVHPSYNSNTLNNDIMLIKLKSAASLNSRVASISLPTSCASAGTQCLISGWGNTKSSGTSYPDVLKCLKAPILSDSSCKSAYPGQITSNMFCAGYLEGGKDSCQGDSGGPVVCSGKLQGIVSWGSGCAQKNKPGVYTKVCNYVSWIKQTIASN
Briefly: Incubation with trypsin-agarose, then ELISA against anti-FLAG antibody (trypsin resistance). The note with it: two hours at 25° C. Type of data set: in vitro ADME. Here is the method: A. Unselected library peptides incubated with trypsin. B. Unselected library peptides incubated without trypsin. C. Round five thrombin selection peptides incubated with trypsin. D. Round five thrombin selection peptides incubated without trypsin.
Trypsin cleaves after R or after K, thus there are two trypsin sites fixed in the FLAG epitope and thrombin substrate sequence. Even partial resistance to trypsin is surprising as no selection for trypsin resistance was performed and the FLAG epitope is susceptible to trypsin cleavage. Such resistance is observed in round five peptides selected for thrombin resistance, but not in the un-selected library peptides (FIG. 3).

As to PSCPNKQDPTHD [SEQID 030], in the data set with Human Thrombin, the Thrombin resistant result was “resistant”. Besides, the Trypsin resistant entry with trypsin was “resistant”.

As to HCVHEPQTKHES [SEQID 029], the Thrombin resistant entry in the data set with Human Thrombin is recorded as “resistant”. Further, the Trypsin resistant result with trypsin is on record as “resistant”.

ITPPDNSHTPDE [SEQID 027]: the Thrombin resistant result with Human Thrombin is given as “resistant”. The Trypsin resistant entry with trypsin is “resistant”.

For HGHSPSDNANTR [SEQID 028], the Thrombin resistant result with Human Thrombin is given as “resistant”. The Trypsin resistant entry with trypsin is “resistant”.
